Test results as given in PMC3874172 (Nucleic Acids Research, 2013).

T1: GST-ETO (UniProt Q06455-2 1-577)
T1 sequence (looked up): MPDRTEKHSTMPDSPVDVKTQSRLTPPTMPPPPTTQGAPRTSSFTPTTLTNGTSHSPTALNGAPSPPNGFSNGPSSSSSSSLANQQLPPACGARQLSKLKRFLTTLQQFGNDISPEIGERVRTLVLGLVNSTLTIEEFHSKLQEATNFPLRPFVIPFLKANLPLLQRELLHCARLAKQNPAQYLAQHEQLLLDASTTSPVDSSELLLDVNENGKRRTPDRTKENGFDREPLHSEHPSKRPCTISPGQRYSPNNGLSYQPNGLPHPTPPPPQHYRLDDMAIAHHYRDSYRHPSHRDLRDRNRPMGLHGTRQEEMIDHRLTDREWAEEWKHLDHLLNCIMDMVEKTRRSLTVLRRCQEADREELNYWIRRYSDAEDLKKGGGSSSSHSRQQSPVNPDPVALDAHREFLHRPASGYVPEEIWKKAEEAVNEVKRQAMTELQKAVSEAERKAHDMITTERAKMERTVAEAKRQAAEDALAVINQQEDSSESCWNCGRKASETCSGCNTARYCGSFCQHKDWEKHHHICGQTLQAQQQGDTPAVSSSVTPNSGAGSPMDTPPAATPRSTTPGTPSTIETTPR


Tests used:
GST-ETO [1] = biological target: GST-ETO (UniProt Q06455); test: pull-down
GST-ETO [2] = biological target: T1, GST-ETO; test: pull-down

fold reduction of binding relative to E2A-AD (GST-ETO [1]) [fold]	fold reduction of binding relative to E2A-AD (GST-ETO [2]) [fold]	Molecule
4	–	isolated DES domain of E2A, in vitro translated Gal4-DBD fusion (domain or fragment)
–	~24	E2A-AD1 (amino acids 1-90), in vitro translated (domain or fragment, UniProt P15923 1-90, looked up, 35S label) MNQPQRMAPVGTDKELSDLLDFSMMFPLPVTNGKGRPASLAGAQFGGSGLEDRPSSGSWGSGDQSSSSFDPSRTFSEGTHFTESHSSLSS
